This note sets out measurements from PMC7242495.

In this data set the test system is T1, CadR (Pseudomonas aeruginosa), ORF:ef015ded.
T1 sequence: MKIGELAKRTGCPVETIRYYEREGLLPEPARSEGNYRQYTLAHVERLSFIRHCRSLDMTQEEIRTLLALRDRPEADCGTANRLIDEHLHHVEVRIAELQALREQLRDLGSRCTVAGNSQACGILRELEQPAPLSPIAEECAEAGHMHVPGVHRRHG
Briefly: EMSA. As to conditions: EMSA: 10 mM Tris pH 8.0, 40 mM KCl, 10 mM MgCl2, 1 mM DTT, 5% glycerol, 250 nM CadR, 25 ng DNA, +/- Zn or EDTA, 30 min room temperature, gel at 4 C …. Background: A gel shift assay detects complexes by their altered migration in electrophoresis.

Consider “CCATGATCATGTCCGTGACCGTGACCGTGACAGCAAGTGTCGGCGTGTTCGTGGCTCATGGAAACAATTCCCGTTTGACGTGTTGGGTGCGATTGCACACCCTGTAGCAACTACAGAGTCAAGCGGTACTGCCAATTCGGGTAGCCGCGTCGGCGATTGGAGGAGGGTTGGCATGAAGATCGGTGAGCTGGCGAAGAGAACCGGTT (double strand) [pcadA WT promoter (EMSA)]”, for which the binding result was “binds”.

“GCTTCCGGTCAGCAGCAACGCCCATTTCAGGCGGGTCGAGTTGGTCTGGGCGAAGCTGTGCTCGTGTCCGGCGCTCATGGCGGCTCCTGTGGGGCGGTGGCGGCAGCACCAGCCTACAGGATAGGCAATTGCAAAACTGTCATGCGCCGGGCCGCTCTGGCGCGGCGTCCGCCGCTCCGCTAACCTGCGGCTCAGGCGCGGCCGCAGCCGCGCACGGAACGAGGGGGACGCATGACTCAACAGCACGA (double strand) [pczcD]”: the binding entry is reported as “no binding”.
